# Experimental data: publication doi:10.1101/2023.09.04.556233
# Read-outs that look alike come from different tables or passages of the source.
# T1: Spalt major (Salm) (UniProt P39770 1-1365)
# T1 sequence: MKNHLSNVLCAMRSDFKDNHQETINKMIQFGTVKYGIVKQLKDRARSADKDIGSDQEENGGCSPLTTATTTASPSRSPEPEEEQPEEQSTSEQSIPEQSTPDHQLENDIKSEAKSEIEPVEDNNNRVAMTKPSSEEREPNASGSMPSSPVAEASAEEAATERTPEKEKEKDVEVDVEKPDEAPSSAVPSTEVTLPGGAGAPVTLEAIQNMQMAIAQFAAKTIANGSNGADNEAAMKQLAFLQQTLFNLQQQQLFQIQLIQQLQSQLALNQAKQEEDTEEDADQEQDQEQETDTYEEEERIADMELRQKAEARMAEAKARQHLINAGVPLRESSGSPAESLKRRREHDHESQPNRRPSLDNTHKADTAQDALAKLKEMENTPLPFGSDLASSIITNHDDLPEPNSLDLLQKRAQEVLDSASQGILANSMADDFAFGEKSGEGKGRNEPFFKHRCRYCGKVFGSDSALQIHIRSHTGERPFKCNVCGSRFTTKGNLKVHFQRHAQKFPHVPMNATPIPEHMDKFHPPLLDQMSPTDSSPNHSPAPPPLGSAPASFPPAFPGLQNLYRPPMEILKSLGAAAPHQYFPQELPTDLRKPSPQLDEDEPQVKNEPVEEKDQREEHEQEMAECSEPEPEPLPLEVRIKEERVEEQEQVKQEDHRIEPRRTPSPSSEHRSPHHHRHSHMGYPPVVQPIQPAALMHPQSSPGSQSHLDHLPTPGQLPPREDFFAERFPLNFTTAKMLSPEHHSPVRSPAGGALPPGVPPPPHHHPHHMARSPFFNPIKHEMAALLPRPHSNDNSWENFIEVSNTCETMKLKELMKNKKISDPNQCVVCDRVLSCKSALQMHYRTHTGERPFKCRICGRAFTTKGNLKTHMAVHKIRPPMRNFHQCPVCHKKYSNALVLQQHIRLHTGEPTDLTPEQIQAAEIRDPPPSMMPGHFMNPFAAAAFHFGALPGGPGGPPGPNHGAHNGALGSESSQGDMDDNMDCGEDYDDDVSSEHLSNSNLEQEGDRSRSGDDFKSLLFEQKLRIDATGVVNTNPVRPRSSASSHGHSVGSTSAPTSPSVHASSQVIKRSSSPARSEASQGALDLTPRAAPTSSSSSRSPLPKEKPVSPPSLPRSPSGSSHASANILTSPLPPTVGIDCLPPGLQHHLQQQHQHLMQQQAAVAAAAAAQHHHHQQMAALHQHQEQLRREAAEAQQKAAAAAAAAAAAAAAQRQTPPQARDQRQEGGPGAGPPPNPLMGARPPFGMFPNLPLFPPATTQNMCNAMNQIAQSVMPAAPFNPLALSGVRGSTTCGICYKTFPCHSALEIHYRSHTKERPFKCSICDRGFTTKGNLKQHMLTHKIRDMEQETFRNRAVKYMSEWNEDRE
# B1: 60sal (dsDNA)
# DNA 1: GCAAAAAGATATCAAAAATGTCGCATATTAATAACGCTCTCCATTGGCGGACACAGGAC
# DNA 2: GTCCTGTGTCCGCCAATGGAGAGCGTTATTAATATGCGACATTTTTGATATCTTTTTGC
# B2: 60salNC (3' half, non-conserved) (dsDNA)
# DNA 1: TTAATAACGCTCTCCATTGGCGGACACAGGAC
# DNA 2: GTCCTGTGTCCGCCAATGGAGAGCGTTATTAA
# B3: 60salC (5' half, conserved) (dsDNA)
# DNA 1: GCAAAAAGATATCAAAAATGTCGCATATT
# DNA 2: AATATGCGACATTTTTGATATCTTTTTGC
# Legend:
# Test in all cases: EMSA
# Spalt major (Salm) [1] = target: T1, Spalt major (Salm)
# Spalt major (Salm) [2] = target: T1, Spalt major (Salm); remark: listed apart in the source
# Spalt major (Salm) [3] = target: T1, Spalt major (Salm); remark: listed apart in the source
binder,measurement,setting,value
B1,binding result,Spalt major (Salm) [1],binds
B2,binding result,Spalt major (Salm) [2],binds
B3,binding result,Spalt major (Salm) [3],binds
